In patent publication US9119806B2, “Culturing circular ssDNA viruses for the production of vaccines” (priority 2007, dated 2015):

How the values were obtained:
[1] = test system: EMC virus; settings: porcine PK-15 cells infected with EMC virus; supplier leaflet, typical; cited from earlier work
[2] = test system: PCV2 strain Stoon-1010 in PK-15 cells; assay: Progeny PCV2 production in PK-15 cells with acidification inhibitors and/or IFN-gamma; assay type: cell-based, Porcine circovirus 2; settings: IFN-gamma 500 U/ml pre-treatment
Experimental: For progeny virus production assays, 2×10^5 cells were seeded in every well of 24-well cell culture plates. Cells were pre-treated with or without 500 U/ml IFN-gamma at 6 hours post seeding. At 24 h post-seeding, cells were washed and inoculated with the prototype PCV2 strain Stoon-1010 at an m.o.i. of 0.3 for 1 hour at 37° C. The viral inoculum was washed-off and cells were further incubated in 1 ml of culture medium with or without 25 mM ammonium chloride, 125 μM chloroquine diphosphate and/or 6 μM monensin for 24 hours. Then, the culture medium with or without endosomal-lysosomal system acidification inhibitors was replaced with fresh culture medium without inhibitors. At 1, 24, 48 and 72 hours post-inoculation the supernatant was collected. Subsequently the culture was washed once with 1 ml PBS. Both the supernatant and the washing fluid were centrifuged for 10 minutes at 15,000×g to pellet cells and debris. The centrifuged supernatant and washing fluids were combined and considered to contain the extracellular virus. Both pellets and cell cultures were freeze-thawed three times and considered to contain the intracellular virus. Intra- and extracellular virus titres were determined by titration on PCV-negative PK-15 cells as described previously. Viral antigens were detected using an IPMA as described above and PCV2 titre was expressed as log10 TCID50 per 10^5 cells.

[3] = test system: PCV2-infected 3D4/31 cells; assay: Number of PCV2-infected 3D4/31 cells (IPMA) after cytokine treatment; assay type: cell-based, Porcine circovirus 2; settings: for increase in PCV2-positive cells: 3D4/31
Source text: In order to use cells, more related to the target cells in vivo, the monocytic cell line 3D4/31 was used to confirm the effect of the different cytokines on the number of PCV2-infected cells. The 3D4/31 cell line is a porcine monomyeloid cell lines that was established following transfection of primary porcine alveolar macrophage cultures with plasmid pSV3neo, carrying genes for neomycin resistance and SV40 large T antigen. (Weingartl et al. (2002) J Virol Methods. 10, 203-216). These cells were maintained in a 1:1 mixture of RPMI-1640 (Invitrogen) and DMEM (Invitrogen) supplemented with 10% fetal bovine serum, 0.3 mg/ml glutamine, 100 U/ml penicillin, 0.1 mg/ml streptomycin, 0.1 mg/ml kanamycin and 1% non-essential amino acids 100× (GIBCO BRL®, Grand Island, USA). These experiments were also performed in 96-well plates containing the same number of cells. Furthermore, to monitor the effect of IFN-gamma on the entry of PCV2 virion-like particles was determined, 3D4/31 cells were seeded at 2×10^5 cells/ml of medium onto microscopic slides mounted with an 8 well cell culture silicone chamber (Vivascience AG, Hanover). In all inoculations, the same PCV2-strain (Stoon-1010) was used at a multiplicity of infection of 0.01. The virus was diluted in MEM and inoculated on the cell cultures by incubating cells and virus for 1 hour at 37° C. After 1 hour, the inoculum was removed, the cultures were washed twice with MEM and new culture medium was added.
The influence of the cytokines on the infection of PCV2 in PK-15 and 3D4/31 cells was determined by adding two-fold-dilution series of the cytokines to the medium of the cells before, during or after the inoculation. IL-1, IL-6, […] and IFN-alpha were used in concentrations ranging from 0.25-250 Units/ml (U/ml), IFN-gamma was used in concentrations ranging from 0.25-1000 U/ml and IL-10 was used in concentrations from 0.13-125 U/ml. Cell cultures were either pre-treated with the cytokines for 24 hours before inoculation, treated during the inoculation or the cytokines were added in the medium after the inoculation. After 36 hours of incubation at 37° C. in an environment supplemented with 5% CO2, the cells were fixed by drying and frozen at −20° C. The plates were stained with an immuno-peroxydase monolayer assay (IPMA) as described by Sanchez et al. (2003, Vet Microbiol 95, 15-25) and the number of PCV2-positive cells was counted by light microscopy. In each plate a control was inoculated with an equal dose of mock-treated PCV2 (treated with MEM without cytokines). The number of infected cells in this well was used as the reference and all results were expressed as a ratio to this reference.

[4] = test system: PCV2 proteins in PK-15 cells; assay: Expression kinetics of PCV2 proteins (capsid, REP) in PK-15 cells, immunofluorescence; assay type: cell-based, Porcine circovirus 2
Experimental: To determine the timing and localisation of PCV2 proteins expression (Capsid protein and REP), PK-15 cells were seeded on glass cover slips and inoculated with PCV2. After inoculation, culture medium was added with or without 500 U/ml IFN-gamma. At 0, 12, 24, 36, 48 and 72 hpi the cells were fixed in methanol at −20° C. Afterwards, a triple immunofluorescence staining was performed to visualize both viral proteins and the cell nucleus. PCV2 capsid protein was detected using purified biotinylated porcine polyclonal anti-PCV2 immunoglobulins which only react with PCV2 capsid proteins. Bound porcine immunoglobulins were visualized with streptavidin conjugated Texas Red (molecular probes, Leiden, The Netherlands). In a second step, the REP protein was detected with a specific mouse monoclonal antibody (F210) visualized with goat-anti-mouse FITC (molecular probes, Leiden, The Netherlands). In a final step, the nuclei of the cells were visualized with Hoechst 33342 (Molecular Probes, Oreg., USA) at a concentration of 0.1 mg/ml. The number of cells with capsid and/or REP protein was counted and the localisation of viral antigens was monitored by fluorescence microscopy.

[5] = treated (500 U/ml) and non-treated PK-15 cells

B1: IFN-gamma: Porcine interferon gamma purchased from R&D systems (protein, UniProt P17803 24-166, looked up)
Interferon gamma: QAPFFKEITILKDYFNASTSDVPNGGPLFLEILKNWKEESDKKIIQSQIVSFYFKFFEIFKDNQAIQRSMDVIKQDMFQRFLNGSSGKLNDFEKLIKIPVDNLQIQRKAISELIKVMNDLSPRSNLRKRKRSQTMFQGQRASK
ED50 for anti-viral effect [1]: 0.015 to 0.045 ng/mL | PCV2 titres at 1 hpi ([2]; 1 hpi): 2.0 TCID50 per 10^5 cells | PCV2 titres at 24 hpi ([2]; 24 hpi): 2.1 TCID50 per 10^5 cells | PCV2 titres at 48 hpi ([2]; 48 hpi): 3.4 TCID50 per 10^5 cells | PCV2 titres at 72 hpi ([2]; 72 hpi): 3.9 TCID50 per 10^5 cells | increase in PCV2-positive cells ([3]; treated after inoculation): 523±115% | increase in PCV2-positive cells ([3]; treated before inoculation): 806±88% | increase in PCV2-positive cells ([3]; treated during inoculation): 214±16% | change in the number of PCV2-positive cells (in words) ([3]; 3D4/31 cells, any concentration, before, during or after inoculation): dose-dependent increase | influence on sequence of events of PCV2 protein expression (in words) ([4]; PK-15, 500 U/ml after inoculation): did not influence | first nuclear localisation of both proteins ([4]; both cultures): 24 hpi | first detection of REP protein [4, 5]: 24 hpi | first detection of capsid protein [4, 5]: 12 hpi
